Measured values from the nanobody polyreactivity screen of Harvey et al. (2022).

Assay: yeast display, Sf9 membrane polyspecificity reagent, FACS + sequencing; frameworks hold sequencing errors
Summary of the method: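 A synthetic nanobody library was expressed on Saccharomyces cerevisiae BJ5465 by galactose induction for 36–48 hours. The library was stained for 1 hour at 4 °C with 10% biotinylated, detergent-solubilized Sf9 membrane reagent and enriched with streptavidin microbeads before FACS. Low and high (top ~1%) gates were set on anti-HA fluorescence for expression and streptavidin fluorescence for reagent binding, and each polyreactivity label reflects the gate of origin.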

Sequence | polyreactivity (PSR sort gate)
QVQLVESGGGLVQAGGSLRLSCAASGFTFYRNTMGWYRQAPGKERELVAAITQRGGSTYYADSVKGRFTISRDNAKNTVYLQMNSLKPEDTAVYYCNRDVKVLYASSHSPYGYDHWGQGTQVTVSS | low polyreactivity
QVQLVESGGGLVQAGGSLRLSCAASGFTFYRYAIGWYRQAPGKETQFFASISRSGGSTYYADSVKGRFTISRDNAKNTVYLQMNSLKPEDTEVYYCAKSYTSSPFRIRDYWGQGTQVTVSS | high polyreactivity
QVQLVESGGGLVQAGGSLRLSCAASGFTFYRYAMGSYRQAPGKERELVAAITFRGDSTYYADSVKGRFTISRDNAKNTVYLQMNSLKPEDTAVYYCAADRPSGWYSYLSLYIVRRGYWGQGTQVTVSS | low polyreactivity
QVQLVESGGGLVQAGGSLRLSCAASGFTFYRYAMGWYRPAPGKERELVAAITSGGSTYYADSVKGRCTISRDNAKNTVFLQMISLKPEDTAVYSCAAQKARVSPGAWTRYVYWGQGTQVTVSS | high polyreactivity
QVQLVESGGGLVQAGGSLRLSCAASGFTFYRYAMGWYRPATGKERELVATISASGGSTYYADSVKGRFTISRDNAKNTVYLQMNSLKPEDTAVYYCAVRYKSWYGFNYWGQGTQVTVSS | high polyreactivity
QVQLVESGGGLVQAGGSLRLSCAASGFTFYRYAMGWYRQAPGKERELVAAISGSGCSKYYADSVKGRFTISRDNAKNTVYLHRNSLKPEDTAVYYCNTVWFYGAKYDYWGQGTQVTVSS | high polyreactivity
QVQLVESGGGLVQAGGSLRLSCAASGFTFYRYAMGWYRQAPGKERELVAAISQRGGRTYYADSVKGRFTISRDNAKTTVYLQMNSLKPEDTAVYYCNARYSGYGLYDYWGQGTQVTVSS | high polyreactivity
QVQLVESGGGLVQAGGSLRLSCAASGFTFYRYAMGWYRQAPGKERELVAAISTSGVSTYYADSVKGRFTISRDNAKNTVYLQMNSLKPEDTAVYYCAKAGWRGSYIYYRFRVGYDSWGQGTQVTVSS | high polyreactivity
QVQLVESGGGLVQAGGSLRLSCAASGFTFYRYTMGWNRQAPGKERELVASITRRGGSTYYADSVKGRFTISRDNAKNTVYFQMNSLKPEDTAVYYCNAATPVWQSGTYEYWGQGTQVTVSS | high polyreactivity
QVQLVESGGGLVQAGGSLRLSCAASGFTFYRYTMGWYRQPPGKERELVAAISARGVSTYYADSVKGRFTISRDNAKNTVYLQMNSLKPEDTAVYYCYVSRYDSWGQGTQVTVSS | high polyreactivity
QVQLVESGGGLVQAGGSLRLSCAASGFTFYSNAMGWYRQAPGKERELVAAITWRGGSTNYADSVKGRFTISRDNAKNTVYLHMNSLKPEETAVYYCAAVTYWFWPGMDYWGQGTEVTVSS | low polyreactivity
QVQLVESGGGLVQAGGSLRLSCAASGFTFYSNAMGWYRQAPGKERELVAVINSDDDSTYYADSVKGRFTISRDNAKNTVYLQMNSLKPEDTAVYYCNKVWRVGKYPYSDRYYFGGGYWGQGTQVTVSS | high polyreactivity
QVQLVESGGGLVQAGGSLRLSCAASGFTFYSYAMGWYRPAPGKERELVAAISSGGSTKYADSVKGRFTISRDNAKNTVYLQMNSVKPEDTEVYYCAARYYRDYRWYTYAYDYWGQGTQVTVSS | high polyreactivity
QVQLVESGGGLVQAGGSLRLSCAASGFTFYSYAMGWYRQAPGKERELVAAISGGGGSTYYADSVKGRFTISRDNAKNTVYLQMNSLKPEDTAVYYCAKRPAYRGYGLGYYWGQGTQVTVSS | high polyreactivity
QVQLVESGGGLVQAGGSLRLSCAASGFTFYSYAMGWYRQAPGKERELVAAISRSGGSTRYADSVKGRFTISRDNAKNTVYLQMNSLKPEDTAVYYCAARSWYPYRYSSLYYWGQGTQVTVSS | high polyreactivity
QVQLVESGGGLVQAGGSLRLSCAASGFTFYSYAMGWYRQAPGKERELVAAISWSGTRTYYADSVKGRFTISRDNAKYTVYLQMNSLKPEDTAVYYCAARGYRYGYGYWGQGTQVTVSS | high polyreactivity
QVQLVESGGGLVQAGGSLRLSCAASGFTFYSYAMGWYRQAPGKEWELVAAISRRGGSTYYADSVKGRFTISRDNAKNTVYLQMNCLKPEDTAVYYCAAEDSNSRYLYGYDYWGQGTQVTVSS | high polyreactivity
